Measurements from patent EP4624487A1.
Values belong to the binder of their own block, whether it stands above or below them.

How the values were obtained:
antiserum C2 = experiment: competition ELISA: peptide added to C2 on plate-bound hTNFα
antiserum B1 = experiment: competition ELISA: peptide added to B1 on plate-bound hTNFα

- OD450 with peptide (antiserum C2): 1.79
- inhibition rate (%) (antiserum C2): -1%
B1: hTNFα peptide H(73-87) (peptide)
peptide: HVLLTHTISRIAVSY

- OD450 with peptide (antiserum C2): 1.73
- inhibition rate (%) (antiserum C2): 10%
B2: hTNFα peptide H(61-75) (peptide)
peptide: QVLFKGQGCPSTHVL

- OD450 with peptide (antiserum B1): 1.06
- inhibition rate (%) (antiserum B1): 14%
B3: hTNFα peptide T(100-114) (peptide)
peptide: PCQRETPEGAEAKPW

- OD450 with peptide (antiserum C2): 1.78
- inhibition rate (%) (antiserum C2): 5%
B4: hTNFα peptide H(88-102) (peptide)
peptide: QTKVNLLSAIKSPCQ

- OD450 with peptide (antiserum B1): 0.106
- inhibition rate (%) (antiserum B1): 91%
B5: hTNFα peptide T(31-45) (peptide)
peptide: RRANALLANGVELRD

- OD450 with peptide (antiserum C2): 1.74
- inhibition rate (%) (antiserum C2): 8%
B6: hTNFα peptide H(10-24) (peptide)
peptide: DKPVAHVVANPQAEG

- OD450 with peptide (antiserum C2): 1.79
- inhibition rate (%) (antiserum C2): 6%
B7: hTNFα peptide H(94-108) (peptide)
peptide: LSAIKSPCQRETPEG

- OD450 with peptide (antiserum C2): 1.78
- inhibition rate (%) (antiserum C2): 12%
B8: hTNFα peptide H(129-143) (peptide)
peptide: GDRLSAEINRPDYLD

- OD450 with peptide (antiserum B1): 1.12
- inhibition rate (%) (antiserum B1): 13%
B9: hTNFα peptide T(76-90) (peptide)
peptide: LTHTISRIAVSYQTK

- OD450 with peptide (antiserum B1): 1.16
- inhibition rate (%) (antiserum B1): 10%
B10: hTNFα peptide T(46-60) (peptide)
peptide: NQLVVPSEGLYLIYS

- OD450 with peptide (antiserum B1): 1.06
- inhibition rate (%) (antiserum B1): 4%
B11: hTNFα peptide T(9-23) (peptide)
peptide: SDKPVAHVVANPQAE

- OD450 with peptide (antiserum B1): 1.2
- inhibition rate (%) (antiserum B1): 0%
B12: hTNFα peptide H(117-131) (peptide)
peptide: PIYLGGVFQLEKGDR

- OD450 with peptide (antiserum B1): 1.11
- inhibition rate (%) (antiserum B1): 9%
B13: hTNFα peptide T(130-144) (peptide)
peptide: DRLSAEINRPDYLDF

- OD450 with peptide (antiserum B1): 0.103
- inhibition rate (%) (antiserum B1): 92%
B14: hTNFα peptide T(24-38) (peptide)
peptide: GQLQWLNRRANALLA

- OD450 with peptide (antiserum C2): 1.65
- inhibition rate (%) (antiserum C2): 7%
B15: hTNFα peptide H(14-28) (peptide)
peptide: AHVVANPQAEGQLQW

- OD450 with peptide (antiserum C2): 0.313
- inhibition rate (%) (antiserum C2): 82%
B16: hTNFα peptide H(26-40) (peptide)
peptide: LQWLNRRANALLANG

- OD450 with peptide (antiserum B1): 1.01
- inhibition rate (%) (antiserum B1): 23%
B17: hTNFα peptide T(39-53) (peptide)
peptide: NGVELRDNQLVVPSE

- OD450 with peptide (antiserum B1): 1.06
- inhibition rate (%) (antiserum B1): 9%
B18: hTNFα peptide T(16-30) (peptide)
peptide: VVANPQAEGQLQWLN

- OD450 with peptide (antiserum B1): 1.1
- inhibition rate (%) (antiserum B1): 13%
B19: hTNFα peptide T(1-15) (peptide)
peptide: VRSSSRTPSDKPVAH

- OD450 with peptide (antiserum C2): 1.35
- inhibition rate (%) (antiserum C2): 21%
B20: hTNFα peptide H(52-66) (peptide)
peptide: SEGLYLIYSQVLFKG

- OD450 with peptide (antiserum C2): 1.7
- inhibition rate (%) (antiserum C2): 12%
B21: hTNFα peptide H(80-94) (peptide)
peptide: ISRIAVSYQTKVNLL

- OD450 with peptide (antiserum C2): 1.77
- inhibition rate (%) (antiserum C2): 10%
B22: hTNFα peptide H(120-134) (peptide)
peptide: LGGVFQLEKGDRLSA

- OD450 with peptide (antiserum C2): 1.42
- inhibition rate (%) (antiserum C2): 19%
B23: hTNFα peptide H(38-52) (peptide)
peptide: ANGVELRDNQLVVPS

- OD450 with peptide (antiserum B1): 1.17
- inhibition rate (%) (antiserum B1): 3%
B24: hTNFα peptide T(91-105) (peptide)
peptide: VNLLSAIKSPCQRET
